Numbering of substitutions follows the chain as printed. Names and notes keep the numbering of the source. Values belong to the binder of their own block, whether it stands above or below them.
Experiments:
[1] = target: T1, murine PCSK9, V5- and His-tagged (mPCSK9v5His) (murine, UniProt Q80W65 35-694); test: cell-based or functional assay
[2] = target: T1, murine PCSK9, V5- and His-tagged …; test: SPR (Biacore 2000), Fab captured on anti-Fab IgG, PCSK9 in flow; mean N=3
Experimental: Anti-Fab IgG (Human specific) (Sigma, catalog #I5260) was covalently coupled to surfaces 1 and 2 of a Sensor Chip CM5 via primary amine groups, using the immobilization wizard with the “Aim for immobilization” option using Biacore™ Amine Coupling Kit (cat #BR-1000-50. A target immobilization of 5000 RU was specified. The wizard uses a 7 minute activation with a 1:1 mixture of 100 mM NHS (N-Hydroxysuccinimide) and 400 mM EDC (1-ethyl-3-(3-dimethylaminopropyl)-carbodiimide), injects the ligand in several pulses to achieve the desired level, then deactivates the remaining surface with a 7 minute pulse of ethanolamine.
Each Fab was captured by flowing a 500 ng/ml solution at 5 or 10 μl/min for 1-1.5 minutes to reach a target RL for an Rₘₐₓ of 100-150 RU for the reaction. 5-10 concentrations of hPCSK9v5His or mPCSK9v5His antigens were flowed across the surface at 30 μl/minute for 3-4 minutes. 15-60 minutes dissociation time was allowed before regeneration of the Anti-Fab surface with a 30 second pulse of 10 mM glycine pH 2.0.

[3] = target: T1, murine PCSK9, V5- and His-tagged …; test: SPR (Biacore 2000), IgG captured on goat anti-human IgG, PCSK9 in flow; mean N=2
Experimental: A goat Anti-Human IgG (Caltag, catalog #H10700) was covalently coupled to surfaces 1 and 2 of a Sensor Chip CM5 via primary amine groups, using the immobilization wizard with the “Aim for immobilization” option using Biacore™ Amine Coupling Kit (cat #BR-1000-50. A target immobilization of 5000 RU was specified. The wizard uses a 7 minute activation with a 1:1 mixture of 100 mM NHS (N-Hydroxysuccinimide) and 400 mM EDC (1-ethyl-3-(3-dimethylaminopropyl)-carbodiimide), injects the ligand in several pulses to achieve the desired level, then deactivates the remaining surface with a 7 minute pulse of ethanolamine.
IgG was captured by flowing a 10 nM solution at 10 μl/min for 1-1.5 minutes to reach a target RL for an Rₘₐₓ of 100-150 RU for the reaction. 5-10 concentrations of hPCSK9v5His or mPCSK9v5His antigens were flowed across the surface at 30 or 60 μl/minute for 4 minutes. 15-60 minutes dissociation time was allowed before regeneration of the Anti-IgG surface with a 60 second pulse of 10 mM Glycine pH 1.7.

[4] = target: T2, human PCSK9, V5- and His-tagged (hPCSK9v5His) (human, UniProt Q8NBP7 31-692); test: SPR (Bio-Rad ProteOn), Fab against human PCSK9-V5-His
T2 construct: Recombinant secreted protein; Peptides 31-49 (prodomain) and 153-; also called wt-hPCSK9; wt-PCSK9; not shown: V5 and His tags

[5] = target: T1, murine PCSK9, V5- and His-tagged …; test: kinetic constants of 1B20 Fab; method not named at the table (presumably SPR as in Example 6)

T2 sequence (Q8NBP7 31-692 limits assumed): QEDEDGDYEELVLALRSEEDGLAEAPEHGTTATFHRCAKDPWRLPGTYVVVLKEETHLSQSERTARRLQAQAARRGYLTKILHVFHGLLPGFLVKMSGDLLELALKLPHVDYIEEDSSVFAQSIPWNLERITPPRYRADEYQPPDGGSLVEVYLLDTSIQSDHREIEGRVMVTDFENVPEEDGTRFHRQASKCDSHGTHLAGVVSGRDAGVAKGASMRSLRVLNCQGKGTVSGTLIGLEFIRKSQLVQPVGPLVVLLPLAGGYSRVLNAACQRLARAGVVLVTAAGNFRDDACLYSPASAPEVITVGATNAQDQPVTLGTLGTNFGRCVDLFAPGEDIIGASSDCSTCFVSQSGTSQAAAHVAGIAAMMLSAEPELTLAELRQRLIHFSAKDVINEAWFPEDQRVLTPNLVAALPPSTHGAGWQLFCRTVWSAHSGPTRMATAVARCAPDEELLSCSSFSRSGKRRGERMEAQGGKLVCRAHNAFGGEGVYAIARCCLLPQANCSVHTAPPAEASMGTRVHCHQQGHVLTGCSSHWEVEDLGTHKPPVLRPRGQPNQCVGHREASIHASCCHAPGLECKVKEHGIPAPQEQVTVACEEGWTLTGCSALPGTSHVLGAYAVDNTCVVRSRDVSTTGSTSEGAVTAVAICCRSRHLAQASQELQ
T1 sequence (Q80W65 35-694 limits assumed): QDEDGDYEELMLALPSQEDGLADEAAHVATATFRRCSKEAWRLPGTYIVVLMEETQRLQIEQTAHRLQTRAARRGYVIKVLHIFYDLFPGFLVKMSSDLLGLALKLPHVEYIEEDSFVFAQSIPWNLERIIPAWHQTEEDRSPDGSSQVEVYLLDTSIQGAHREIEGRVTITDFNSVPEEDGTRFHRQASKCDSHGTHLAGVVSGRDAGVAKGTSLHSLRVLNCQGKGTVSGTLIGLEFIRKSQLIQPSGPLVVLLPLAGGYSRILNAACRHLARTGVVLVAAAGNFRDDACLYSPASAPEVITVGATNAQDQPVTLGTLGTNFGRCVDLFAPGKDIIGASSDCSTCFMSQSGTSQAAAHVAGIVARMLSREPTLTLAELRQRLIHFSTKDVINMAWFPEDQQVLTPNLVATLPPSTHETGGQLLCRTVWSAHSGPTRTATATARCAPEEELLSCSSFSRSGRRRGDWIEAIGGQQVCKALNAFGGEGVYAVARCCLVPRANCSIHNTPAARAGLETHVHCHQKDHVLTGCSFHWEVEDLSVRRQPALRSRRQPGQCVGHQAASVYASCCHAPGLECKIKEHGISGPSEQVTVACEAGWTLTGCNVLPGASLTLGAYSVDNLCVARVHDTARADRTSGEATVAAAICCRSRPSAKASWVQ

IC50, inhibition of PCSK9-dependent loss of cellular LDL uptake (Exopolar assay, HEK cells, PCSK9 5 ug/ml) [1]: 97 nM
Kd [2]: 3.35 nM
B1: m2CX1D05 Fab (Fab, V domains shown)
VH: QVQLVQSGAEVKKPGSSVKVSCKASGGTFNSHAISWVRQAPGQGLEWMGGINPILGIANYAQKFQGRVTITADESTSTAYMELSSLRSEDTAVYYCARHYEIQIGRYGMNVYYLMYRFASWGQGTLVTVSS
VL: DIQMTQSPSSLSASVGDRVTITCRASQGIRSALNWYQQKPGKAPKLLIYNGSTLQSGVPSRFSGSGSGTDFTLTISSLQPEDFAVYYCQQFDGDPTFGQGTKVEIKR
notes: also called Fab 1D05; mPCSK9 2CX1D05 Fab

IC50, inhibition of PCSK9-dependent loss of cellular LDL uptake (Exopolar assay, HEK cells, PCSK9 5 ug/ml) [1]: 85 nM
Kd [3]: 3.2 nM
B2: 1D05 IgG2m4 (antibody, V domains shown)
VH: B1 VH
VL: B1 VL
notes: also called M2CX1D05 (IgG); IgG 1D05

Kd [4]: 1.52 nM
B3: 1D05 Fab variant M48L (Fab, V domains shown)
VH: B1 VH with M48L
VL: B1 VL
notes: Tested as a Fab, with only the heavy chain mutated

Kd [4]: 1.45 nM
B4: 1D05 Fab variant H99Y (Fab, V domains shown)
VH: B1 VH with H99Y
VL: B1 VL
notes: as for B3

Kd [4]: 2.58 nM
B5: 1D05 Fab variant N50Y (Fab, V domains shown)
VH: B1 VH
VL: B1 VL with N50Y
notes: Tested as a Fab, with only the light chain mutated

Kd [4]: 0.615 nM
B6: 1D05 Fab variant N50Q (Fab, V domains shown)
VH: B1 VH
VL: B1 VL with N50Q
notes: as for B5

Kd [4]: 2.13 nM
B7: 1D05 Fab variant N50T (Fab, V domains shown)
VH: B1 VH
VL: B1 VL with N50T
notes: as for B5

Kd [4]: 2.01 nM
B8: 1D05 Fab variant H32Y (Fab, V domains shown)
VH: B1 VH with H32Y
VL: B1 VL
notes: Site-directed mutant of 1D05, tested as a Fab, with only the heavy chain mutated

Kd [4]: 1.95 nM
B9: 1D05 Fab variant M48V (Fab, V domains shown)
VH: B1 VH with M48V
VL: B1 VL
notes: as for B3

Kd [4]: 3.42 nM
B10: 1D05 Fab variant N50D (Fab, V domains shown)
VH: B1 VH
VL: B1 VL with N50D
notes: as for B5

Kd [4]: 2.06 nM
B11: 1D05 Fab variant M48A (Fab, V domains shown)
VH: B1 VH with M48A
VL: B1 VL
notes: as for B3

Kd [4]: 1.13 nM
B12: 1D05 Fab variant M48L/M109L/M115L (Fab, V domains shown)
VH: B1 VH with M48L, M109L, M115L
VL: B1 VL
notes: as for B3

IC50, Exopolar assay (PCSK9-dependent loss of cellular LDL uptake) [1]: 152 nM
Ka [5]: 2e+09 M⁻¹
Kd [5]: 0.51 nM
koff [5]: 7.18e-05 s⁻¹
kon [5]: 141000 M⁻¹ s⁻¹
B13: 1B20 Fab (Fab, V domains shown)
VH: QVQLVQSGAEVKKPGESLKISCKGSGYSFTNYWISWVRQMPGKGLEWMGIIYPGDSYTNYSPSFQGQVTISADKSISTAYLQWSSLKASDTAMYYCARDYWYKPLFDIWGQGTLVTVSS
VL: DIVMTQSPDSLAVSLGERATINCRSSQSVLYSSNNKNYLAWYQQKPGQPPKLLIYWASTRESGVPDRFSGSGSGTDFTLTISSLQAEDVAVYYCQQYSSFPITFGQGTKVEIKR
